Assay results reported in publication PMC4728560 (Scientific Reports, 2016).
Entries after “also recorded” stand apart in the source; their conditions may differ.

Experiments:
[1] = test system: Bax mediated cytochrome c release, Bcl-xL; assay: Cytochrome c release from purified mitochondria by tBid and Bax in the presence of Bcl-xL; format: biochemical; conditions: mouse liver mitochondria; 5 nM tBid, 50 nM Bax, 300 nM Bcl-xL; 15 min, 30 °C; Western blot
Description: (A–E) in vitro reconstitution assay on liposome permeabilization. […] The treated Bcl-xL was then added to reactions containing ANTS-DPX liposomes, 100 nM Bax and 20 nM of either cBid (A,B) or cBidmt1(C,D) at pH 7. Liposome permeabilization was quantified by fluorescence after 5h incubation at 37 °C where 100% release was defined as the fluorescence change due to lipid solubilization with 1% Triton X-100. […] Error bars, std. dev. n = 3. To compare between the TCTP treated groups and the Control group statistically, two-way ANOVA test was performed for (A–D) and one-way ANOVA test was performed for (E). […] Colored asterisks above each data point indicate the statistical significance (*p < 0.05; **p < 0.01, no asterisks if p ≥ 0.05). A complete statistical analysis is provided in Supplementary Table 2–4. […] Cyto c extra-mito: in the supernatant, analysed by Western blot. […]
to highlight the pre-incubation), pH 9, 30 C° before being added to the mitochondria at their final concentrations. […] Cytochrome c was detected in the mitochondrial fraction (Cyto c intra-mito) or in the supernatant (Cyto c extra-mito) by Western blot analysis. […]
Cytochrome c release assay. […] Mitochondrial pellets and the corresponding supernatant fractions were subjected to SDS-polyacrylamide gel electrophoresis and analyzed by Western blotting for cytochrome c.

[2] = test system: Bcl-xL inhibition of cBidmt1/Bax; assay: In vitro reconstitution liposome permeabilization, cBidmt1/Bax with Bcl-xL; format: biochemical; conditions: ANTS/DPX liposomes, 100 nM Bax, 20 nM cBidmt1, pre-incubation pH 9, 45 min, 37 °C, 5 h, pH 7
Source text: (§1) This purified assay system measures direct interactions in which full-length untagged Bcl-xL inhibits permeabilization by binding full-length caspase 8 cleaved Bid (cBid) and/or full-length untagged Bax, thereby preventing Bax oligomerization in membranes. […] In these assays liposome permeabilization by activated Bax releases the entrapped fluorophore/quencher pair 8-aminonaphthalene-1,3,6-trisulfonic acid (ANTS)/p-xylene-bispyridinium (DPX), resulting in a measurable increase of fluorescence.
(§2) (A–E) in vitro reconstitution assay on liposome permeabilization. […] The treated Bcl-xL was then added to reactions containing ANTS-DPX liposomes, 100 nM Bax and 20 nM of either cBid (A,B) or cBidmt1(C,D) at pH 7. Liposome permeabilization was quantified by fluorescence after 5h incubation at 37 °C where 100% release was defined as the fluorescence change due to lipid solubilization with 1% Triton X-100. […] Error bars, std. dev. n = 3. […] Cyto c extra-mito: in the supernatant, analysed by Western blot. […]
(§3) Figure 10 A,B) or cBid mt1 (Supplementary Figure 10 C,D) at pH 7 to quantify the activity of Bcl-xL inhibition of liposome permeablization. […]
(§4) then added to reactions containing ANTS-DPX liposomes, 100nM Bax and 20nM of either c Bid (A, C) or cBid mt1(B, D) at pH 7 and liposome permeabilization was quantified by fluorescence […]

[3] = test system: Bcl-xL inhibition of cBid/Bax; assay: In vitro reconstitution liposome permeabilization, cBid/Bax with Bcl-xL; format: biochemical; conditions: ANTS/DPX liposomes, 100 nM Bax, 20 nM cBid, pre-incubation pH 9, 45 min, 37 °C, 5 h, pH 7
Source text: as §1, §2, §3, §4

Bcl-xL [4] = target: T1, Bcl-xL (Homo sapiens, UniProt Q07817, DEL27-82); assay: Heterocomplex formation with Bcl-xL (native MS, SEC-MALS, gel filtration); format: binding; conditions: native MS: Bcl-xL(Δ27-81ΔCT), equimolar 100 μM, 30 °C, checked at 5 μM (for TCTP-R21A)
T1 construct: one containing the fragment 1-26, and the other the fragment 81-209; 6His (N, cleaved yes); made in house; host or cells: Escherichia coli BL21 (DE3) pRARE2
Description: When not specified, proteins tested for binding experiments were mixed at 100 μM, dialyzed against 10 mM CHES pH 9, 50 mM NaCl, 1 mM DTT or TCEP, depending on the analysis, and heated overnight at 30 °C.
For binding experiments, 100 to 200PL of protein mixture were loaded on a size exclusion chromatography (S200, GE Healthcare) column, while elution profiles were measured by UV absorption at 280 nm.
SEC-MALS experiments were performed on a multi-angle light scattering detector (miniDAWN TREOS, Wyatt Technologies) coupled in-line with SEC and an interferometric refractometer (Optilab T-rEX, Wyatt Technologies). See Supplementary Information for full details.
Prior to any mass spectrometry experiment, protein buffer was exchanged twice against a 50 mM ammonium acetate (NH4Ac) solution at pH 9.0 using microcentrifuge gel filtration columns (Zeba 0.5 ml, Thermo Scientific, Rockford, IL). Protein concentration was determined spectrophotometrically. […]
Supplementary Table 1. Measured molecular weights in denaturing conditions Sample Theoretical molecular Measured molecular Associated mass (Da) mass (Da) species […]
Gel filtration. For binding experiments, 100 to 200PL of protein mixture were loaded on a size exclusion chromatography (S200, GE Healthcare) column, while elution profiles were measured by UV absorption at 280nm. […]

Bcl-xL [5] = assay: In cellulo BRET between Luciferase-fused TCTP and YFP-fused Bcl-xL; format: cell-based; conditions: MCF-7 cells; donor Luciferase-fused TCTP, acceptor YFP-fused Bcl-xL
Source text: See Supplementary Information for full details.
Twenty-four hours later, cells
Protein expression and purification

T1 sequence (Q07817 with tags, fused parts or gaps DEL27-82): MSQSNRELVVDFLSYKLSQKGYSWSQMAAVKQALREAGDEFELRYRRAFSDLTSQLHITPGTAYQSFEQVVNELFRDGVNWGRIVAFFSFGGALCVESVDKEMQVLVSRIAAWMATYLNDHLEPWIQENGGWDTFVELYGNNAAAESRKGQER

B1: TCTP R21A: full-length TCTP protein bearing the mutation R21A (protein)
chain: MIIYRDLISHDEMFSDIYKIAEIADGLCLEVEGKMVSRTEGNIDDSLIGGNASAEGPEGEGTESTVITGVDIVMNHHLQETSFTKEAYKKYIKDYMKSIKGKLEEQRPERVKPFMTGAAEQIKHILANFKNYQFFIGENMNPDGMVALLDYREDGVTPYMIFFKDGLEMEKC
Question: B1 was tested. Which “potentiation of Bcl-xL (cytochrome c release)” value [1] did it give?
Answer: The value was “do not potentiate Bcl-xL”.

Question: And the “effect on Bcl-xL inhibition of cBidmt1/Bax-mediated liposome permeabilization” value [2]?
Answer: Its value is “no effect on Bcl-xL activity”.

Question: And the “effect on Bcl-xL inhibition of cBid/Bax-mediated liposome permeabilization” value [3]?
Answer: The value was “no effect on Bcl-xL activity”.

Question: What about the “complex formation with Bcl-xL” value (Bcl-xL [4]) of the same molecule?
Answer: Its value is “no peak; also recorded: no complex formation”.

Question: And the “BRET signals with Bcl-xL” value (Bcl-xL [5])?
Answer: The value was “lack of binding”.
